# Residue numbers refer to the chain shown, from its start. Names may count otherwise.
# T1: Human β-Klotho (human, UniProt Q86Z14 1-996)
# T1 sequence (looked up): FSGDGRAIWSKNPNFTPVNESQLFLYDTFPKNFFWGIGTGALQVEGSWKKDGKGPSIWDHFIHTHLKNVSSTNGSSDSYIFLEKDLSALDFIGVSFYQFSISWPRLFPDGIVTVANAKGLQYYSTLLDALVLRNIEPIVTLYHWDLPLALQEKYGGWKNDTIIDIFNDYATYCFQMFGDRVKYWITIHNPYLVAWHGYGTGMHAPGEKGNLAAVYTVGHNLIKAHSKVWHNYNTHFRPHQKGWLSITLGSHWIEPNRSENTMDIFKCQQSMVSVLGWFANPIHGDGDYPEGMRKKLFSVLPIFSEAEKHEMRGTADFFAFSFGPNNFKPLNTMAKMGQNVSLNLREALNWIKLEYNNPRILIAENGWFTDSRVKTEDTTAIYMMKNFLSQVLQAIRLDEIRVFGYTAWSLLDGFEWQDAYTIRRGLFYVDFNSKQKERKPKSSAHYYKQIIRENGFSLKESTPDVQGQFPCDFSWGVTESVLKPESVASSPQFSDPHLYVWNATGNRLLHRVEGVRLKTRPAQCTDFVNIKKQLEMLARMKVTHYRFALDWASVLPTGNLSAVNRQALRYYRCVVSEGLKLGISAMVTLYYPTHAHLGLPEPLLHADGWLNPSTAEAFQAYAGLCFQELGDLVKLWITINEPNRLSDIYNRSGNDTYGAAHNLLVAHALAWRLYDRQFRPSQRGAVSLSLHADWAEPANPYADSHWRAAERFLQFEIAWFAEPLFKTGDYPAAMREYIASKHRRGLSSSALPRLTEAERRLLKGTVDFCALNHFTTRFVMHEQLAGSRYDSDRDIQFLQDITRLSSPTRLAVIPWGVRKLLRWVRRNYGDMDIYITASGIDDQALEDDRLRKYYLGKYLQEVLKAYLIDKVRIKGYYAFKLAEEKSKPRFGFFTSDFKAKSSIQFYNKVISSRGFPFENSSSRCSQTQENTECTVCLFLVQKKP
# B1: wild type human FGF21 purified through heat treatment (htFGF21) (ligand, UniProt Q9NSA1 33-209, looked up)
# chain: DSSPLLQFGGQVRQRYLYTDDAQQTEAHLEIREDGTVGGAADQSPESLLQLKALKPGVIQILGVKTSRFLCQRPDGALYGSLHFDPEACSFRELLLEDGYNVYQSEAHGLPLHLPGNKSPHRDPAPRGPARFLPLPGLPPALPEPPGILAPQPPDVGSSDPLSMVGPSQGRSPSYAS
# notes: human fibroblast growth factor 21 (FGF21), residues 33-209; The TEV site ENLYFQ/G stood between Trx and FGF21, so a Gly probably remains before residue 33 after cleavage (surmised); also called htWT; wild type htFGF21; not shown: Trx, N-terminal, cleaved
# B2: htFGF21 variant with Q201H and A208T mutations (htM2) (ligand, human, UniProt Q9NSA1 33-209, looked up)
# chain: B1 chain with Q169H, A176T
# notes: human FGF21 with Q201H and A208T; A Gly from the TEV site probably remains at the N-terminus (surmised); not shown: Trx, N-terminal, cleaved
# B3: htFGF21 variant with S195G, P199G, S200G, Q201H, and A208T mutations (htM5) (ligand, human, UniProt Q9NSA1 33-209, looked up)
# chain: B1 chain with S163G, P167G, S168G, Q169H, A176T
# notes: human FGF21 with S195G, P199G, S200G, Q201H and A208T; A Gly from the TEV site probably remains at the N-terminus (surmised); also called M5 variant; not shown: Trx, N-terminal, cleaved
# B4: htFGF21 variant with S195G, P199G, and S200G mutations (htM3) (ligand, human, UniProt Q9NSA1 33-209, looked up)
# chain: B1 chain with S163G, P167G, S168G
# notes: human FGF21 with S195G, P199G and S200G; A Gly from the TEV site probably remains at the N-terminus (surmised); not shown: Trx, N-terminal, cleaved
# B5: wild type human FGF21 purified without heating (nFGF21) (ligand, UniProt Q9NSA1 33-209, looked up)
# chain: B1 chain
# notes: human fibroblast growth factor 21 (FGF21), residues 33-209; differs only in that the 100 °C step was left out of the purification; The TEV site ENLYFQ/G stood between Trx and FGF21, so a Gly probably remains before residue 33 after cleavage (surmised); also called fibroblast growth factor 21; wild type FGF21; source: E. coli Rosetta (DE3), purified without heating; not shown: Trx, N-terminal, …
# Target: T1, Human β-Klotho
# Test: cell-based or functional assay
# Conditions: not given
row,"EC50 of FGFR1c/β-Klotho activation, luciferase reporter in modified HEK293 cells, 6 h [ng/mL]",Binder
1,2.74,B1
2,1.37,B2
3,0.52,B3
4,0.75,B4

# Target: T1, Human β-Klotho
# Test: SPR; Biacore 8K; FGF21s covalently immobilised on CM5 chip by amine coupling (about 700-900 RU); human β-Klotho injected as 2.5-fold series 250 to 1.024 nM at 30 μl/min; 25 °C; HBS-EP+ (10 mM HEPES pH 7.4, 150 mM NaCl, 3 mM EDTA, 0.05% polysorbate 20); global fit, 1:1 Langmuir model
# Conditions: both partners purified
Kd [nM],koff [s⁻¹],kon [M⁻¹ s⁻¹],Binder
12.9,0.00155,121000,B1
10.9,0.0013,120000,B2
4.32,0.000707,164000,B3
12.8,0.00159,126000,B5
5.19,0.000785,152000,B4

# Source: PMC9849446, “Heating-mediated purification of active FGF21 and structure-based design of its variant with enhanced potency” (Scientific Reports, 2023)
